# Measured values taken from paper PMC12518842.
# Target: NISTmAb Primary Sample (PS 8670)
# Test: FPLC; mAb sample after buffer exchange; sample buffer 15 mM acetic acid, 40 mM NaCl, pH 5 (ionic strength 50 mM); column and running conditions not told
substance,measurement,value
NISTmAb Primary Sample (PS 8670) (antibody),percent dimers,< 1%
